Reference: the supplement of paper PMC10065799, “High-throughput profiling of sequence recognition by tyrosine kinases and SH2 domains using bacterial peptide display” (eLife, 2023)

Assays:
AncSZ = test: phosphorylation enrichment, bacterial display (enrichment ratio); higher = better substrate or ligand; peptides without Tyr show the background
EPHB2 = EPHB2 (UniProt P29323); test: as above
FGFR1 = FGFR1 (UniProt P11362); test: as above
c-Src = test: as above
FGFR3 = FGFR3 (UniProt P22607); test: as above
c-Abl (mouse) = test: as above
MERTK = MERTK (UniProt Q12866); test: as above
Fer (mouse) = test: as above
EPHB1 = EPHB1 (UniProt P54762); test: as above
Jak2 = Jak2 (UniProt O60674); test: as above
Hck = Hck (UniProt P08631); test: as above
Fyn = Fyn (UniProt P06241); test: as above
Fes = Fes (UniProt P07332); test: as above
SHP2-C SH2 = test: SH2 binding enrichment of the phosphorylated peptide, bacterial display (enrichment ratio); higher = better substrate or ligand; peptides without Tyr show the background
c-Src SH2 = test: as above
Grb2 SH2 = Grb2 SH2 (UniProt P62993); test: as above
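Wherever SH2 binding enrichment of the phosphorylated peptide, bacterial display is given: peptide library displayed on the E. coli surface as eCPX fusions, selected cells deep-sequenced, score is each peptide's frequency after selection divided by its frequency in the input.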
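Wherever phosphorylation enrichment, bacterial display is given: 11-residue human phosphosite peptides and single-mutation variants displayed on the E. coli surface, counted by deep sequencing, each peptide's frequency after selection divided by its frequency in the unselected input library; frequency after pTyr selection over input frequency; kinase dosed for 20-30% of maximal phosphorylation in three min.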

MERTK, sequence (Q12866 whole entry, looked up): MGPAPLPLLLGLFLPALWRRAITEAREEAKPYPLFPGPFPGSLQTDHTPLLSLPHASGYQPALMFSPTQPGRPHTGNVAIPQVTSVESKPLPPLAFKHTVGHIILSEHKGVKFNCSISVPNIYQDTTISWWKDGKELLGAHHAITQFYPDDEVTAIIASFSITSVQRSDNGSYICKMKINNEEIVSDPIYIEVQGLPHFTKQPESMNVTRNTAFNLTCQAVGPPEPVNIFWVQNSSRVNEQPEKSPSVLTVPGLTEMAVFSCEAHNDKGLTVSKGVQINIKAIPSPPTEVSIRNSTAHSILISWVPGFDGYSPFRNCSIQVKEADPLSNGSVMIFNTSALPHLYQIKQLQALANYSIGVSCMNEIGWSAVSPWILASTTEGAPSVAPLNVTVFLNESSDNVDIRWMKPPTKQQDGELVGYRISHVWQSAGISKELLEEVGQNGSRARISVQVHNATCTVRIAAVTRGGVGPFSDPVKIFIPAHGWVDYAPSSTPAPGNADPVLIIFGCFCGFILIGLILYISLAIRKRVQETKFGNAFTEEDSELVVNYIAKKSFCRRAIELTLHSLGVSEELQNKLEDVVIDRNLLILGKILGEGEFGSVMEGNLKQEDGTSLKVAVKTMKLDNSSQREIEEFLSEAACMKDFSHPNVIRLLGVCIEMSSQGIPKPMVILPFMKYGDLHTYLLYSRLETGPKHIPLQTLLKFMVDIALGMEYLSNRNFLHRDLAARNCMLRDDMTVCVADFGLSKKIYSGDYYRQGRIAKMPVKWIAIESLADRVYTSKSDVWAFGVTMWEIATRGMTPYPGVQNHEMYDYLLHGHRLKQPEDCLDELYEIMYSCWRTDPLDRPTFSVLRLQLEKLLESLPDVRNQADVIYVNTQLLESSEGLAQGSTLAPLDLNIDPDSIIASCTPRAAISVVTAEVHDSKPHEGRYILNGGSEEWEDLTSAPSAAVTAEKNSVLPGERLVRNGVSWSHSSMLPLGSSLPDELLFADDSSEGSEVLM
Hck, sequence (P08631 whole entry, looked up): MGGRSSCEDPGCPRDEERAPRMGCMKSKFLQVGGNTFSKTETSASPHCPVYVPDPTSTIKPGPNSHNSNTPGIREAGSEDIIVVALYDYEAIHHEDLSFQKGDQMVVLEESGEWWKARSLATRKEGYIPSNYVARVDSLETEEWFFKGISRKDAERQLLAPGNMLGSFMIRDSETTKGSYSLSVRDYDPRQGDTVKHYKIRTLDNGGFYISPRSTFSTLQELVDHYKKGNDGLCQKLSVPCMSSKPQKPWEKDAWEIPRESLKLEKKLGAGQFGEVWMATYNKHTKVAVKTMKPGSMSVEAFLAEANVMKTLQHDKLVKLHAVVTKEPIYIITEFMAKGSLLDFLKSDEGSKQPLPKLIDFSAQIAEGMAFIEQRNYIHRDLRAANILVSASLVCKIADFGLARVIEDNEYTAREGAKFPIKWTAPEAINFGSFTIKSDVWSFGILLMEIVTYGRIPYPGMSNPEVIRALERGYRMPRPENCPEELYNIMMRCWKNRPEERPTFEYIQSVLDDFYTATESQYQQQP
Jak2, sequence (O60674 whole entry, looked up): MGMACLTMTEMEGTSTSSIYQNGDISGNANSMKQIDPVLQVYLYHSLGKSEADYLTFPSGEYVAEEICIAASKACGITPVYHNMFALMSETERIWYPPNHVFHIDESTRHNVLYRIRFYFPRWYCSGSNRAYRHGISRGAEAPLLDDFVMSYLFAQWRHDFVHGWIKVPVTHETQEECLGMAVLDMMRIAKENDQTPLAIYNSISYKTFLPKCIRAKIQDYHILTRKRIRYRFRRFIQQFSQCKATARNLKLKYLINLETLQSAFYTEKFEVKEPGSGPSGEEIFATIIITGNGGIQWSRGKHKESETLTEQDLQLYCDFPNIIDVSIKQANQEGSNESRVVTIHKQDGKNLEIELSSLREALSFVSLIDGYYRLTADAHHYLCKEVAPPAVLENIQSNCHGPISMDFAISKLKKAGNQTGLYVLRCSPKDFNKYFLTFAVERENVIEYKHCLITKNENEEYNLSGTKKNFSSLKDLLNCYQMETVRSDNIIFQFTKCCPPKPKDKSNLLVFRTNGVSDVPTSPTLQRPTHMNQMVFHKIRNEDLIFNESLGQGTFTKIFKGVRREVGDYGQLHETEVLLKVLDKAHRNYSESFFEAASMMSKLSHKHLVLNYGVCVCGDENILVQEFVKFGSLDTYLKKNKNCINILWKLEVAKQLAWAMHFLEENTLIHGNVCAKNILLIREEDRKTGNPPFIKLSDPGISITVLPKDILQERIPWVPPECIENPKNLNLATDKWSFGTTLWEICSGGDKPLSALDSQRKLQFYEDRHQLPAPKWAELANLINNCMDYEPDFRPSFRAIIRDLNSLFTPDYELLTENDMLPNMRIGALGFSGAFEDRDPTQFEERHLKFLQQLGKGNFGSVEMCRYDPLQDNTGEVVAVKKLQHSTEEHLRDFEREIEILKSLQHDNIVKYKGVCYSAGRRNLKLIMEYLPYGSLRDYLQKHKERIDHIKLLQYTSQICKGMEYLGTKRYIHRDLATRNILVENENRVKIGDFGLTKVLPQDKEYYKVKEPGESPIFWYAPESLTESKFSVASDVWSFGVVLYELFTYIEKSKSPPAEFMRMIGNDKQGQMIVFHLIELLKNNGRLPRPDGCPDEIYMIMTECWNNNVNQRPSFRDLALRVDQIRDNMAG
FGFR3, sequence (P22607 whole entry, looked up): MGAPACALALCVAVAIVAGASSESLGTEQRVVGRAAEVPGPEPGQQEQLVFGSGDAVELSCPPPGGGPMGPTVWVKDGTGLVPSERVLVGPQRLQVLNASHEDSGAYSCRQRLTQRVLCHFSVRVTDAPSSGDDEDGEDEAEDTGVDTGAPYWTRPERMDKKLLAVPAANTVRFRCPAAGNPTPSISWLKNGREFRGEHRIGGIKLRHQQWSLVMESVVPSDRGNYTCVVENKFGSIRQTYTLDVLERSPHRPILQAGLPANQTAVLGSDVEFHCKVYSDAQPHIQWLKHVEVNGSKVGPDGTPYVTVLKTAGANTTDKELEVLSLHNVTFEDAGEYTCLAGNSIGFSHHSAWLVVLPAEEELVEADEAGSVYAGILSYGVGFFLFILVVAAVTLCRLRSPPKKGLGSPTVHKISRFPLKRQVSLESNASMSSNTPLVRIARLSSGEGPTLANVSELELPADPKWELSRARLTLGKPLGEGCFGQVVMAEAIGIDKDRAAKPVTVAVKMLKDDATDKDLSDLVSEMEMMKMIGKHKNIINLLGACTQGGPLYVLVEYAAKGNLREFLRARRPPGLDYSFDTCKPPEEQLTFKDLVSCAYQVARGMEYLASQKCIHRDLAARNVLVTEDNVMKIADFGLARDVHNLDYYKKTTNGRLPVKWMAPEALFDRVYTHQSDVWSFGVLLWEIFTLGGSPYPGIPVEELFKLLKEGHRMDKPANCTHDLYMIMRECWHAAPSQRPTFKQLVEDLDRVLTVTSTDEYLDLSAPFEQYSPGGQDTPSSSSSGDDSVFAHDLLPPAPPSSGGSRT
Grb2 SH2, sequence (P62993 whole entry, looked up, the tested form may be a part): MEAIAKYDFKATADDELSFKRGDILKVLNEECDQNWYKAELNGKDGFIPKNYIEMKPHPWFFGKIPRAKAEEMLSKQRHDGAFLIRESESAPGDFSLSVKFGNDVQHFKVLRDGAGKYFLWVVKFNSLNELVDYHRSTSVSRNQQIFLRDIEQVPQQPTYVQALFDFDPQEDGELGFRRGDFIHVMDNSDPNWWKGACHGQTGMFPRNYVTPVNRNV
Fyn, sequence (P06241 whole entry, looked up): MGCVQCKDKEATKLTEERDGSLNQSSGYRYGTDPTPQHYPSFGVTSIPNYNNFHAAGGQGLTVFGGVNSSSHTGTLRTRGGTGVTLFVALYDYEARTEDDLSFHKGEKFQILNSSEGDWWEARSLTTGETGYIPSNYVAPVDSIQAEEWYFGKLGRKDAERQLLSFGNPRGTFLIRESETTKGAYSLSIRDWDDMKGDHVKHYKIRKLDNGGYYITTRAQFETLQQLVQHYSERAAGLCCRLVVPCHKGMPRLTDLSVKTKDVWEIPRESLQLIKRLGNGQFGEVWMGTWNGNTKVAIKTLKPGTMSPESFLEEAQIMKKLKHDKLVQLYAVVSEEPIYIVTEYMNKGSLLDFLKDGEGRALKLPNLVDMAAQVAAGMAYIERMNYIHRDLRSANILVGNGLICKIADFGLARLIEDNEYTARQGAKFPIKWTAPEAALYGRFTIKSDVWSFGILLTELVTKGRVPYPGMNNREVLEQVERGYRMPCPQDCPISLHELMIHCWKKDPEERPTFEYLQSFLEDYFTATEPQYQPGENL
Fes, sequence (P07332 whole entry, looked up): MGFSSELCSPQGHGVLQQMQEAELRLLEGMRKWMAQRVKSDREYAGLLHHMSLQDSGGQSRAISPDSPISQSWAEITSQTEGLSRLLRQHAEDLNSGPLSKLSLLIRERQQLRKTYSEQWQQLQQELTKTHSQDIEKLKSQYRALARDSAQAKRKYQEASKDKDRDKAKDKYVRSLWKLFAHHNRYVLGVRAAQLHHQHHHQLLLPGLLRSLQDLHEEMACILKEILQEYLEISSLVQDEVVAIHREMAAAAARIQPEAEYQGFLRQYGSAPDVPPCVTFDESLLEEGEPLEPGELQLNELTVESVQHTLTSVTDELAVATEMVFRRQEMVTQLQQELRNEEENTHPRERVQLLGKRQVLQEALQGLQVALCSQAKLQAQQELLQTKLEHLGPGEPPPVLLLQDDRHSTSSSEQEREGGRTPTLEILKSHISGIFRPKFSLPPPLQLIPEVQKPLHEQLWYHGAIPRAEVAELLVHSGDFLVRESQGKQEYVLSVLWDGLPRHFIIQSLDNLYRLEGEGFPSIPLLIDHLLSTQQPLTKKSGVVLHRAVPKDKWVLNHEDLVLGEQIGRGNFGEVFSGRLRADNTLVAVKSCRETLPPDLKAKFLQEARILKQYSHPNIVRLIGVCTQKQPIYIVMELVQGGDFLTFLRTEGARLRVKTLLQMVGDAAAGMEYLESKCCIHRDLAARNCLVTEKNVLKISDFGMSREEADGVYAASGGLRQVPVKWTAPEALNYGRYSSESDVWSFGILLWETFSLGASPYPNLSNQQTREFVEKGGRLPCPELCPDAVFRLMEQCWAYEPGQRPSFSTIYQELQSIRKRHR

| Sequence | phosphorylation enrichment (AncSZ) | phosphorylation enrichment (EPHB2) | phosphorylation enrichment (FGFR1) | phosphorylation enrichment (c-Src) | phosphorylation enrichment (FGFR3) | phosphorylation enrichment (c-Abl (mouse)) | phosphorylation enrichment (MERTK) | phosphorylation enrichment (Fer (mouse)) | phosphorylation enrichment (EPHB1) | phosphorylation enrichment (Jak2) | phosphorylation enrichment (Hck) | phosphorylation enrichment (Fyn) | phosphorylation enrichment (Fes) | SH2 binding enrichment (SHP2-C SH2) | SH2 binding enrichment (c-Src SH2) | SH2 binding enrichment (Grb2 SH2) |
| --- | --- | --- | --- | --- | --- | --- | --- | --- | --- | --- | --- | --- | --- | --- | --- | --- |
| WASQRYGRELR [BAD_Y110_A107S] | 0.621 | 0.538 | 0.39 | 0.501 | 0.414 | 0.728 | 0.516 | 0.332 | 0.484 | 0.644 | 0.4 | 0.624 | 0.84 | 0.504 | 0.324 | 0.861 |
| VIEFSYTSADG [DHCR7_Y382_C380Y_YF] | 0.944 | 0.504 | 0.444 | 0.341 | 0.652 | 0.608 | 0.415 | 0.499 | 0.562 | 0.764 | 0.503 | 0.442 | 1.16 | 0.858 | 1.97 | 0.87 |
| CCNHPYLINGA [CHD7_Y1256] | 0.651 | 0.495 | 0.443 | 2.72 | 0.552 | 0.538 | 0.461 | 0.419 | 0.352 | 0.641 | 0.519 | 0.57 | 0.851 | 0.704 | 0.541 | 0.804 |
| ETWHNYHKFDS [MATR3_Y243_S240W] | 0.7 | 0.605 | 0.942 | 0.439 | 0.732 | 0.48 | 0.458 | 0.395 | 0.799 | 0.71 | 0.448 | 0.468 | 0.755 | 0.791 | 2.09 | 0.865 |
| VRFTEYETQVK [TARDBP_Y155] | 0.791 | 1.01 | 0.413 | 0.406 | 0.542 | 0.629 | 0.401 | 0.431 | 0.53 | 0.761 | 0.519 | 0.4 | 0.896 | 0.754 | 0.583 | 0.813 |
| FPKARYHWLVL [APTX_Y214_YF] | 1.03 | 0.457 | 0.645 | 0.39 | 0.777 | 0.647 | 0.731 | 0.675 | 0.588 | 0.772 | 0.53 | 0.491 | 0.945 | 1.94 | 1.42 | 1.5 |
| TRSFDYMEGGD [FGF7_Y58_YF] | 1.03 | 0.544 | 0.617 | 0.446 | 0.674 | 0.761 | 0.613 | 0.416 | 0.487 | 1.05 | 0.599 | 0.535 | 1.18 | 0.791 | 0.576 | 1.07 |
| ILGRFYETSSI [PAX2_Y73_G76S_YF] | 0.66 | 0.47 | 0.417 | 0.47 | 0.463 | 0.606 | 0.472 | 0.887 | 0.516 | 0.665 | 0.531 | 0.399 | 0.813 | 0.792 | 1.02 | 0.85 |
| RGKDNYETSQL [SPP1_Y225_S224N] | 0.857 | 0.628 | 0.565 | 0.681 | 0.634 | 0.62 | 0.689 | 0.541 | 0.662 | 0.74 | 0.56 | 0.549 | 0.773 | 0.469 | 0.59 | 0.681 |
| YSKDNYKRVTG [PANK2_Y405] | 0.675 | 0.44 | 0.456 | 0.44 | 0.4 | 0.52 | 0.488 | 0.494 | 0.362 | 0.6 | 0.344 | 0.387 | 0.611 | 0.597 | 0.374 | 0.793 |
| VCDSNYSASRW [LRP5_Y1552_D1551N] | 0.719 | 1.85 | 0.509 | 0.396 | 0.626 | 0.507 | 0.426 | 0.513 | 1.62 | 0.618 | 0.508 | 0.483 | 0.864 | 0.7 | 0.648 | 0.872 |
| KVWGIYDCQQP [CYP3A7_Y75] | 1.56 | 2.3 | 0.687 | 4.49 | 0.772 | 0.998 | 4.76 | 2.48 | 6.6 | 1.14 | 6.28 | 7.28 | 1.61 | 0.761 | 0.472 | 0.78 |
| KKILCYIQGGS [HYDIN_Y4610_N4606K] | 1.31 | 0.609 | 0.439 | 0.411 | 0.758 | 1.07 | 0.549 | 0.58 | 0.611 | 1.17 | 0.521 | 0.499 | 1.46 | 0.495 | 0.459 | 0.802 |
| QAINEYEKWLE [MAP9_Y603] | 2.34 | 1.03 | 1.12 | 0.631 | 1.39 | 1.06 | 0.663 | 0.961 | 1.67 | 1.73 | 1.2 | 1 | 1.81 | 0.882 | 0.655 | 0.707 |
| TLQSMFGCDVG [HLA-B_Y123_Y123F] | 0.989 | 0.85 | 0.515 | 0.44 | 0.7 | 0.637 | 0.511 | 0.523 | 0.657 | 0.852 | 0.489 | 0.648 | 1.09 | 0.684 | 0.541 | 0.79 |
| FDCGMYSHLQG [LGR4_Y848_YF] | 1.37 | 0.969 | 0.89 | 3.25 | 1 | 1.07 | 4.74 | 1.64 | 1.08 | 1.18 | 3.54 | 0.985 | 1.31 | 1 | 1.79 | 0.727 |
| FASVEYQEALS [GALNS_Y461_A459V] | 1.01 | 0.588 | 0.484 | 0.442 | 0.631 | 0.738 | 0.416 | 0.47 | 0.621 | 0.876 | 0.471 | 0.615 | 0.997 | 0.723 | 0.576 | 0.917 |

| Sequence | phosphorylation enrichment (AncSZ) | phosphorylation enrichment (EPHB2) | phosphorylation enrichment (FGFR1) | phosphorylation enrichment (c-Src) | phosphorylation enrichment (FGFR3) | phosphorylation enrichment (c-Abl (mouse)) | phosphorylation enrichment (MERTK) | phosphorylation enrichment (Fer (mouse)) | phosphorylation enrichment (EPHB1) | phosphorylation enrichment (Jak2) | phosphorylation enrichment (Hck) | phosphorylation enrichment (Fyn) | phosphorylation enrichment (Fes) | SH2 binding enrichment (SHP2-C SH2) | SH2 binding enrichment (c-Src SH2) | SH2 binding enrichment (Grb2 SH2) |
| --- | --- | --- | --- | --- | --- | --- | --- | --- | --- | --- | --- | --- | --- | --- | --- | --- |
| YYSSEYHYVGG [CTSC_Y345] | 6.21 | 17.6 | 17.4 | 4.92 | 16.1 | 12.8 | 12.1 | 4.51 | 15.5 | 7.76 | 6.11 | 5 | 0.945 | 1.13 | 1.98 | 0.929 |
| KDKLPYLFDDP [GPX2_Y125_P126L_YF] | 1.23 | 0.515 | 0.472 | 0.557 | 0.544 | 0.557 | 0.426 | 0.423 | 0.632 | 1.01 | 0.468 | 0.479 | 0.969 | 0.773 | 0.347 | 0.731 |
| QMVGMYAFSYM [AVPR2_Y124_S126F] | 2.25 | 1.84 | 0.804 | 1.35 | 1.15 | 1.27 | 6.65 | 4.47 | 2.45 | 1.44 | 1.52 | 1.55 | 1.86 | 0.651 | 0.562 | 0.638 |
| QADVTYVNTQL [MERTK_Y872_I871T] | 1.11 | 0.584 | 0.504 | 0.682 | 0.606 | 1.11 | 0.522 | 0.714 | 0.717 | 0.703 | 0.518 | 0.518 | 0.942 | 0.84 | 0.964 | 14.4 |
| RGRSTCFWPRP [GAGE12J_Y9_Y9C_YF] | 0.71 | 0.733 | 1.05 | 0.867 | 0.928 | 1.04 | 0.796 | 0.786 | 0.782 | 1.19 | 0.635 | 0.693 | 0.772 | 0.353 | 0.571 | 0.595 |
| SLDLSYYHTSS [EMD_Y181_P183H] | 1.05 | 0.58 | 1.53 | 0.524 | 1.19 | 0.603 | 0.578 | 0.453 | 0.765 | 1.71 | 0.554 | 0.543 | 0.951 | 0.692 | 0.867 | 0.746 |
| KNNDGYIDFAE [MCFD2_Y135_YF] | 0.921 | 0.483 | 0.556 | 0.395 | 0.725 | 0.663 | 0.377 | 0.559 | 0.492 | 0.903 | 0.513 | 0.406 | 1.06 | 0.999 | 14.3 | 0.707 |
| IRKAEYPFSSE [ATP2C1_Y452] | 0.595 | 0.341 | 0.392 | 0.365 | 0.424 | 0.454 | 0.341 | 0.366 | 0.414 | 0.594 | 0.404 | 0.363 | 0.758 | 0.598 | 0.471 | 0.89 |
| IKELTYQMEED [MYH7_Y1852_T1854M] | 1.19 | 0.628 | 0.591 | 1.21 | 0.768 | 0.667 | 0.432 | 0.495 | 0.634 | 1.01 | 0.646 | 0.889 | 1.18 | 0.605 | 0.507 | 0.825 |
| MLEVPYVDRNS [F10_Y384] | 0.847 | 0.494 | 0.411 | 0.395 | 0.643 | 0.611 | 0.317 | 0.434 | 0.499 | 0.789 | 0.453 | 0.382 | 0.89 | 0.708 | 0.457 | 0.724 |
| VSLEAYCKHKF [RXRA_Y403_A398V_YF] | 0.949 | 0.509 | 0.392 | 0.556 | 0.568 | 0.898 | 0.443 | 0.411 | 0.571 | 1.11 | 0.353 | 0.399 | 1.07 | 0.674 | 0.337 | 0.702 |
| MSRNLYSGDYY [DDR2_Y736] | 2.08 | 14.6 | 7.13 | 5.09 | 5.43 | 0.821 | 9.32 | 2.13 | 11.3 | 1.64 | 5.53 | 5.12 | 0.788 | 0.612 | 0.845 | 0.878 |
| TTTQAYRVNER [PRKN_Y391_D394N] | 0.496 | 0.31 | 0.421 | 0.473 | 0.386 | 0.492 | 0.4 | 0.447 | 0.445 | 0.531 | 0.397 | 0.324 | 0.514 | 0.576 | 0.438 | 0.848 |
| HVKHNYECLVY [XRCC5_Y416_I412V] | 1.06 | 2.04 | 0.75 | 2.04 | 1.12 | 1.01 | 0.519 | 0.573 | 2.87 | 1.12 | 0.842 | 0.922 | 1.2 | 0.938 | 5.15 | 1.03 |
| RKLASYQSCLL [DHX37_Y1080_R1081Q] | 1.01 | 0.799 | 1.19 | 0.463 | 1.22 | 0.872 | 0.539 | 0.555 | 0.592 | 2.02 | 0.665 | 0.901 | 1.11 | 0.646 | 0.517 | 0.784 |
| GVLKEYVVKVL [CPS1_Y529_G530V] | 0.989 | 0.491 | 0.383 | 0.355 | 0.546 | 0.67 | 0.32 | 0.384 | 0.477 | 0.814 | 0.386 | 0.389 | 1.06 | 0.748 | 0.479 | 0.949 |
